According to patent US6146878:

How the values were obtained:
[1] = target: T1, TyrR (tyrosine repressor) (Erwinia herbicola) (UniProt Q9ZIB7); assay: cell_activity; conditions: beta-galactosidase reporter, M9 + 2 mM L-tyrosine, 37 C; 35.5 without tyrosine; indirect evidence of binding
T1 sequence: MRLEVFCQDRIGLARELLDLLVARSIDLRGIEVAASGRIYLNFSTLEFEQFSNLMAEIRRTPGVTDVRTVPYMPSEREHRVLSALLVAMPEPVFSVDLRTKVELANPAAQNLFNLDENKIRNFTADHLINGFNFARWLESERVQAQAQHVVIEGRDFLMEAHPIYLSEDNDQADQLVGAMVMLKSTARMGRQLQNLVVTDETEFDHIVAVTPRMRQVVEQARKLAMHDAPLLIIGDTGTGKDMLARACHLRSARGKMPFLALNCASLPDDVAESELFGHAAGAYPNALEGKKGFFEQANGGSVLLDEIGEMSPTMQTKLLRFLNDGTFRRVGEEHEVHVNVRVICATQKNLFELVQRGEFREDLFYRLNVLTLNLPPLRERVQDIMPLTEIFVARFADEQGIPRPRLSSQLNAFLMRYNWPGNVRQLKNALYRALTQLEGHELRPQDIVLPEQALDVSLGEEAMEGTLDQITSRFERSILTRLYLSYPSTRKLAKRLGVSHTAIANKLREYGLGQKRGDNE

TyrR (Escherichia coli) = assay: cell_activity; conditions: beta-galactosidase reporter, M9 + 2 mM L-tyrosine, 37 C; 29.1 without tyrosine; indirect evidence of binding

tpl promoter/enhancer region (about 480 bp, tpl'-'lac fusion)
activity [1]: 656 Miller units
activity (TyrR (Escherichia coli)): 324 Miller units
